# Changes are numbered by the printed parent chain.
# T1: Human CD228 protein (human, UniProt P08582 20-708, limits assumed)
# T1 construct: Recombinant protein made in CHO cells, purified over a Ni column; The printed entry begins with the leader (MRGPSG...) and ends with ten His; also called hCD228; CD228-His protein
# T1 sequence: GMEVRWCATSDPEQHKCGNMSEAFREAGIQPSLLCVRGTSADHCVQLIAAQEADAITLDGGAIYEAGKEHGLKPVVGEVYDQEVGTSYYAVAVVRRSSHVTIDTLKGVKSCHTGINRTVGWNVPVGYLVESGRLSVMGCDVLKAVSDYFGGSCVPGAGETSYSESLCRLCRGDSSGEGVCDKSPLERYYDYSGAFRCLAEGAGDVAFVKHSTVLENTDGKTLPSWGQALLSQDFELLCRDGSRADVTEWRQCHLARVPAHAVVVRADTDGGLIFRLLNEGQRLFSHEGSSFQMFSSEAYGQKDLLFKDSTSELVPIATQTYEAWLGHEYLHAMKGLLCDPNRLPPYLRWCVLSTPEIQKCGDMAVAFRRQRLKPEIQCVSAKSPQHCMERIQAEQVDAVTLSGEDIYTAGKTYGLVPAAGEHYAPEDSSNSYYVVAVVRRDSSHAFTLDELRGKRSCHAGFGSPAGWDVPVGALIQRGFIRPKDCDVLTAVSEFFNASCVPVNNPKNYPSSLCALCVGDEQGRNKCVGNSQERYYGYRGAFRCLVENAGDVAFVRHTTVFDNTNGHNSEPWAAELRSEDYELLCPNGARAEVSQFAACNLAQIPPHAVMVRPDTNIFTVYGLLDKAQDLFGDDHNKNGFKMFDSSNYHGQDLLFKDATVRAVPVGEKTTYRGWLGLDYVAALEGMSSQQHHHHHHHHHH
# T2: Mouse CD228 protein (mouse, UniProt Q9R0R1 20-708, limits assumed)
# T2 construct: Recombinant His-tagged protein from CHO cells
# T2 chain: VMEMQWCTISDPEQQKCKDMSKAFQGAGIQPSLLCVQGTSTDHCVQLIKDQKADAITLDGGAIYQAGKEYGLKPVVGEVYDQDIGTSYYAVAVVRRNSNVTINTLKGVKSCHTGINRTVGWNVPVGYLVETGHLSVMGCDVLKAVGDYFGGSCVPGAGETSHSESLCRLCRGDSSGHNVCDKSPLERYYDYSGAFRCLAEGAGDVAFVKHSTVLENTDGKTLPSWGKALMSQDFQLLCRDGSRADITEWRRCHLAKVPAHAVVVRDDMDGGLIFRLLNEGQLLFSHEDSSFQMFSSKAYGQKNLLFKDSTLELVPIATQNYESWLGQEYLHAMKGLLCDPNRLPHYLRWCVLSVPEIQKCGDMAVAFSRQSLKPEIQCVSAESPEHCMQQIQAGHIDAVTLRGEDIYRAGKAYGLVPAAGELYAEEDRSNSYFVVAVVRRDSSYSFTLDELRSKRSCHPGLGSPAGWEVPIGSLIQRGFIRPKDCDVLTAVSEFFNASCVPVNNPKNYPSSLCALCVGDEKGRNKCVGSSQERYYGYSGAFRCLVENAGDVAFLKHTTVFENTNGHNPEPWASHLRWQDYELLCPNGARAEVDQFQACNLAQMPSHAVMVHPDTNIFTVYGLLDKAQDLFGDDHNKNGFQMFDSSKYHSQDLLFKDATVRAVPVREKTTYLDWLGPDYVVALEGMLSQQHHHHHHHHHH
# B1: BA352 (antibody, human IgG1, kappa, V domains shown)
# VH: EVQLVESGGGVVQPGRSLRLSCAASGFTFSSYAMHWVRQAPGKGLEWVAVISYDGSNKYYADSVKGRFTISRDNSKNTLYLQMNSLRAEDTAVYYCARGPYLAAAGTALTFDIWGQGTMVTVSS
# VL: DIQMTQSPSAMSASVGDRVTITCRASQGINNYLAWFQQKPGKVPKRLIYAASSLQSGVPSRFSGSGSGTEFTLTISSLQPEDFATYYCLQHNSYPFTFGPGTKVDIKR
# notes: Intact IgG1
# B2: reference antibody hL49 (antibody, human IgG1, kappa, V domains shown)
# VH: QVQLQESGPGLVKPSETLSLTCTVSGDSITSGYWNWIRQPPGKGLEYIGYISDSGITYYNPSLKSRVTISRDTSKNQYSLKLSSVTAADTAVYYCARRTLATYYAMDYWGQGTLVTVSS
# VL: DFVMTQSPLSLPVTLGQPASISCRASQSLVHSDGNTYLHWYQQRPGQSPRLLIYRVSNRFSGVPDRFSGSGSGTDFTLKISRVEAEDVGVYYCSQSTHVPPTFGQGTKLEIKR
# notes: also called H149; hL49 analogy
# B3: CA149 (antibody, human IgG1, kappa, V domains shown)
# VH: EVQLVESGGGVVQPGRSLRLSCAASGFTFSSYAMHWVRQAPGKGLEWVAVISFDGSNKYYTDSVKGRFTISRDNSKNTLYLQMNSLRAEDTAVYYCAREVPYYYGSGPFDYWGQGTLVTVSS
# VL: EIVLTQSPATLSVSPGERATLSCRASQSVSSNLAWYQQKPGQAPRHLIDGASSRASGIPDRFSGSGSGTDFTLTISRLEPEDFAVYYCQQYGSSPPFTFGPGTKVDIKR
# notes: Intact IgG1; also called CA149 antibody
# B4: CA185 (antibody, human IgG1, kappa, V domains shown)
# VH: B3 VH with F53Y, T61A
# VL: EIVLTQSPGTLSLSPGERATLSCRASQSVSSSSLAWYQQKPGQAPRHLIDGASSRASGIPDRFSGSGSGTDFTLTISRLEPEDFAVYYCQQYGSSYTFGQGTKVDIKR
# notes: Intact IgG1
# B5: CA13 (antibody, human IgG1, kappa, V domains shown)
# VH: EVQLVESGGGVVQPGRSLRLSCAASGFTFSSYAMHWVRQAPGKGLEWVAVISYDGSNKYYADSVKGRFTISRDNSKNTLFLQMNSLRAEDTAVYYCARDVYHYGSRSPYYYGMDVWGQGTTVTVSS
# VL: DIVMTQSPSSLSASVGDRVTITCRASQGISNYLAWFQQKPGKVPKLLIYAASTLQSGVPSRFSGSGSGTDFTLTISSLQPEDVATYYCQKYNSAPFTFGPGTKVDIKR
# notes: Intact IgG1 from fully human antibody-transgenic mice
# B6: CA518 (antibody, human IgG1, kappa, V domains shown)
# VH: B5 VH with Y60H, A97V
# VL: B5 VL with V3Q, L11V, N31S, Y32W, F36Y, V43A, T53S
# notes: Intact IgG1
# B7: CA67 (antibody, human IgG1, kappa, V domains shown)
# VH: B5 VH with F80Y
# VL: B5 VL with V3Q, G28A, F36Y, Q55H, S56P
# notes: Intact IgG1
# Molecular target: T1, Human CD228 protein
# Assay: Octet, CD228 on His chip; PBST buffer in place of the first antibody
# Method: (§1) CD228 proteins were immobilized on His chips at 10 μg/mL with a threshold of 0.5 nm. The first CD228 antibody (30 μg/mL) was immobilized, and the competitive binding of the second CD228 antibody (30 μg/mL) was analyzed. The Octet 8K system was used to analyze the response of antibody 2 and to determine whether antibody 1 and antibody 2 were in competition.
row,"Octet response value (blank value, PBST buffer)",Binder
1,0.393,B1
2,0.347,B2
3,0.409,B3
4,0.411,B4
5,0.393,B5
6,0.442,B6
7,0.425,B7

# Molecular target: T1, Human CD228 protein
# Assay: Octet competition on His-chip CD228; competitor: CA149
# Method: as §1
row,Octet response value,Binder
1,0.416,B1
2,0.435,B2
3,0.0039,B3
4,0.0089,B4
5,-0.0059,B5
6,-0.0041,B6
7,-0.012,B7

# Molecular target: T1, Human CD228 protein
# Assay: ELISA, plate coated with human CD228 protein
# Method: Human CD228 protein (prepared by Boan, 20201014, SEQ ID NO: 41) was diluted to 0.1 μg/mL with a carbonate-buffered saline (hereinafter referred to as CBS) at pH 9.6. Microplates were coated with the protein at 100 μL/well, and incubated at 4° C. overnight. After washing, the microplates were blocked with skimmed milk powder. The plates were washed, before antibodies diluted with PBST (phosphate-buffered saline, Solarbio P1010, +0.05% Tween20) were added at 100 μL/well. The diluted antibodies were intact antibodies comprising Fc, Fab and the constant region serially 3-fold diluted from 0.1 μg/mL to 8 concentrations with PBST. After washing the plates, goat anti-human IgG (H+L)/HRP (diluted at 1:5000, KPL, 474-1006) was added at 100 μL/well, and the plates were incubated at 37° C. for 1 h. After washing the plates, TMB (Beijing Makewonderbio, 1001) was added at 100 μL/well for chromogenesis, and after 10 min, 50 μL of 2 M H₂SO₄ was added to stop the chromogenesis. OD450 was measured on a microplate reader. The antibody hL49 targeting CD228 from Seagen was used as a reference antibody in this study and the following studies.
row,EC50,Binder
1,6.1 ng/mL,B1
2,27.8 ng/mL,B2
3,3.6 ng/mL,B3
4,3.9 ng/mL,B4
5,3.2 ng/mL,B5
6,4.3 ng/mL,B6
7,3.8 ng/mL,B7

# Molecular target: T1, Human CD228 protein
# Assay: Octet competition on His-chip CD228; competitor: BA352
# Method: as §1
row,Octet response value,Binder
1,0.0217,B1
2,0.177,B2
3,0.442,B3
4,0.459,B4
5,0.427,B5
6,0.415,B6
7,0.423,B7

# Molecular target: T1, Human CD228 protein
# Assay: Octet competition on His-chip CD228; competitor: CA13
# Method: as §1
# The final competition analysis was conducted using the following calculation method: 1—response value/blank value.
row,competition (1-response value/blank value),Binder
1,-8%,B1
2,-6%,B2
3,97%,B3
4,99%,B4
5,100%,B5
6,98%,B6
7,102%,B7

# Molecular target: T1, Human CD228 protein
# Assay: as above
# Remark: another data set of the same source
# Method: as §1
row,Octet response value,Binder
1,0.424,B1
2,0.418,B2
3,0.0117,B3
4,0.0046,B4
5,-0.0011,B5
6,0.006,B6
7,-0.0065,B7

# Molecular target: T2, Mouse CD228 protein
# Assay: SPR, BIAcore 8K; antibody on ProA chip, CD228 protein as analyte
# Method: The binding kinetics of the antibodies to the CD228 proteins was measured using the BIAcore 8K system based on surface plasmon resonance (SRP). CD228 antibodies were immobilized on ProA chips at a concentration of 2 μg/mL, and the binding activity of the CD228 antibodies to human, monkey, and mouse CD228 proteins was analyzed. Human, monkey and mouse CD228 proteins were serially 2-fold diluted from 50 nM to 5 concentrations with an HBS-EP+ buffer. The binding kinetics of the CD228 proteins were analyzed by Biacore, and the affinity activity KD values were calculated by fitting.
row,binding result,Binder
1,no binding,B1
2,no binding,B2
3,no binding,B3
4,no binding,B4
5,no binding,B5
6,no binding,B6
7,no binding,B7

# Molecular target: T1, Human CD228 protein
# Assay: Octet competition on His-chip CD228; competitor: CA518
# Method: as §1
row,Octet response value,Binder
1,0.458,B1
2,0.456,B2
3,0.0079,B3
4,0.0029,B4
5,-0.0081,B5
6,-0.0046,B6
7,-0.0133,B7

# From patent publication US20250121082A1 (SHANDONG BOAN BIOTECHNOLOGY, published 2025)
